# Results: paper PMC9475553, “SHF Acts as a Novel Tumor Suppressor in Glioblastoma Multiforme by Disrupting STAT3 Dimerization” (Advanced Science, 2022)
# B1: C16 peptide (derived from the STAT3-binding sites of SHF) (peptide, UniProt Q7M4L6 388-421, looked up)
# peptide: PFSSVPEIVHHYASRKLPIKGAEHMSLLYPVAIR
# modifications: palmitic acid at the N-terminus; amidated C-terminus
# notes: '3× His tags' is not explained further (three histidines or three His tags); source: synthetic peptide (Genscript; solid-phase Fmoc synthesis, RP-HPLC, purity above 95%); not shown: 3× His tags, C-terminal, kept
# Biological target: T1, recombinant STAT3 (immobilized, static adsorption assay) (UniProt P40763 1-770)
# T1 construct: STAT3, called 'recombinant STAT3' in the legend and 'immobilized STAT3 peptide' in the results; also called immobilized STAT3; STAT3 (powder)
# T1 sequence (P40763 whole entry): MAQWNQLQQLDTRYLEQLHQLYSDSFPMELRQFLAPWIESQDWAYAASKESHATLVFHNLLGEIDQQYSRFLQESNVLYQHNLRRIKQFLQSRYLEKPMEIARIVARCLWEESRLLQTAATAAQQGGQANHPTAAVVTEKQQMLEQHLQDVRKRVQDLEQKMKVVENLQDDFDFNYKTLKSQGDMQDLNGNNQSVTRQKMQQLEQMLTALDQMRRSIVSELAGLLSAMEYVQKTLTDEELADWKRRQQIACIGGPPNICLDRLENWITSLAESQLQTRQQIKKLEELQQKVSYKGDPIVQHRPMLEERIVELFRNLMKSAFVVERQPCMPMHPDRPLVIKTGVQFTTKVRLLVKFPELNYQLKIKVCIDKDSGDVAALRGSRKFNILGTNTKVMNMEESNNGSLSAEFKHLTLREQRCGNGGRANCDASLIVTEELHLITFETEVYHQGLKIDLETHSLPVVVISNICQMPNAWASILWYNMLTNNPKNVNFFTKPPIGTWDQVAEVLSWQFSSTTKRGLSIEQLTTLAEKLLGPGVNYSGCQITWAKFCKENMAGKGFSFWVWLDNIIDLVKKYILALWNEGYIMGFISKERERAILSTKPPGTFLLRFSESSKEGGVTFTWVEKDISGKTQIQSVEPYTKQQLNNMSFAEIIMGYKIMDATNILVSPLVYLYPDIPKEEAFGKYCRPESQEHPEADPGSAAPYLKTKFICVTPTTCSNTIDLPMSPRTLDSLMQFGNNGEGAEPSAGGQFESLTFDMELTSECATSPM
# Assay: static adsorption equilibrium assay; immobilized STAT3 (85 nmol g^-1 wet gel) in 20 mL PBS with 2-20 µM C16 or scramble, stirred 12 h; free peptide by absorbance at 240 nm; Langmuir isotherm
# Conditions: both partners purified
binder,measurement,value
B1,stoichiometry N,1
